Drawing on patent publication US20260103686A1, “MICROBIAL STRAIN, PROTEIN, AND METHOD FOR PRODUCING GALLIC ACID USING MICROBIAL STRAIN OR PROTEIN” (UNIVERSITY OF TSUKUBA, priority 2022, published 2026), this text covers Km for one substance.

The subject of the data set is O=C(O)c1ccc(O)c(O)c1. Put plainly: purified protein, by the assay type. Conditions: other: PCA substrate, 200 µM NADPH, 10 µM FAD, pH 7.9, 25° C., 340 nm.

Description: The cell-free extracts were subjected to a HisTrap HP column (GE healthcare) which was equilibrated with an equilibration buffer (20 mM Tris-HCl buffer (pH 7.9), 20 mM imidazole), and then fractions eluted with an eluent (20 mM Tris-HCl buffer (pH 7.9), 500 mM imidazole) were collected.
The protein concentrations of the purified enzyme liquids were measured using Bio-Rad Protein Assay Dye Reagent Concentrate (Bio-Rad, USA), and the purified enzyme liquids were diluted to 1 of mg/mL with a buffer. Thus, purified enzyme liquids protocatechuic acid 5-hydroxylases, HgPobA, HyPobA, PoPobA, HgPobA-TY and PaPobA, were prepared.
Using the purified enzyme liquids of HgPobA, HgPobA-TY, PoPobA, HyPobA and PaPobA described above, a reaction kinetic analysis was conducted.

“Pseudomonas aeruginosa-derived PobA (PaPobA), p-hydroxybenzoate hydroxylase, wild type, SEQ ID NO: 28 (Pseudomonas aeruginosa PAO1)”: the Km (usually the concentration of substrate that gives half-maximal velocity) was 140 µM.
